Data on 76 sequences can be found in the supplement of paper PMC7877785.

± gives the uncertainty stated by the source.

The data set in a line: self-splicing fitness, log relative to wild type (ln ratio); higher = more splicing; Tetrahymena group I intron in knt gene, E. coli kanamycin selection, DiMSum; sequences stand for … in CUCUCU…GGAGGGAAAAGUUAUCAGGCAUGCACCUGGUAGCUAGUCUUUAAACCAAUAGAUUGCAUCGGUUUAAAAGGCAAGACCGUCAAAUUGCGGGAAAGGGGUCAACAGCCGUUCAGUACCAAGUCUCAGGGGAAACUUUGAGAUGGCCUUGCAAAGGGUAUGGUAAUAAGCUGACGGACAUGGUCCUAACCACGCAGCCAAGUCCUAAGUCAACAGAUCUUCUGUUGAUAUGGAUGCAGUUCACAGACUAAAUGUCGGUCGGGGAAGAUGUAUUCUUCUCAUAAGAUAUAGUCGGACCUCUCCUUAAUGGGAGCUAGCGGAUGAAGUGAUGCAACACUGGAGCCGCUGGGAACUAAUUUGUAUGCGAAAGUAUAUUGAUUAGUUUUGGAGUACUCGUGGUCG
The gist of the method: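 A randomised library covering all eight P1ex-region intron nucleotides was built with the intron in the knt kanamycin-resistance gene on pET-22b(+) and held in E. coli BL21(DE3). Cells were grown overnight at 37°C or 30°C on LB agar, with or without 25 μg/mL kanamycin, plus 100 μg/mL carbenicillin, 50 μM IPTG and 0.2% rhamnose, and pooled colonies were amplicon-sequenced on an Illumina HiSeq 2500. DiMSum fitness is the error-weighted combination of wild-type-normalised replicate fold changes, kanamycin versus none.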

With CAGUAGCAAUAUUACGAGGA, the “self-splicing fitness (ln)” value by setting is: (30 °C) -3.13 ± 0.24; (37 °C) -1.77 ± 0.2.
For CGAAAGCAAUAUUACGAUCC the same measures were -1.03 ± 0.16 and -0.798 ± 0.17.
For AUUGAGCAAUAUUACGGCAU the same measures were -1.17 ± 0.088 and -0.323 ± 0.13.
For GAAUAGCAAUAUUACGAGCG the same measures were -1.62 ± 0.069 and -0.354 ± 0.076.
Regarding GACCAGCAAUAUUACGAAGA, the “self-splicing fitness (ln)” value by setting is: (30 °C) -1.44 ± 0.14; (37 °C) -0.589 ± 0.12.
For AAAUAGCAAUAUUACGAUUC the same measures were -0.544 ± 0.066 and -0.733 ± 0.1.
For UACAAGCAAUAUUACGAUCC, in that order: -3.27 ± 0.27 and -1.78 ± 0.24.
For CUAGAGCAAUAUUACGGUUG, in that order: -0.207 ± 0.056 and -0.329 ± 0.074.
As to GAUCAGCAAUAUUACGGCGC, the “self-splicing fitness (ln)” value is -0.52 ± 0.11 (30 °C) and 0.0329 ± 0.14 (37 °C).
Turning to CGAGAGCAAUAUUACGUAAU, where the note is “37 °C”, the “self-splicing fitness (ln)” value was -2.01 ± 0.3.
For the sequence GAUCAGCAAUAUUACGCGCC, the “self-splicing fitness (ln)” value (30 °C) is -0.0847 ± 0.14 and the “self-splicing fitness (ln)” value (37 °C) was -0.763 ± 0.17.
For AAACAGCAAUAUUACGCGGU, in that order: -3.32 ± 0.23 and -2.18 ± 0.17.
For UCCUAGCAAUAUUACGGCCU, in that order: -2.37 ± 0.34 and -2.29 ± 0.37.
As for CUCUAGCAAUAUUACGGCAC, the “self-splicing fitness (ln)” value (30 °C) was -2.61 ± 0.26.
Consider ACGUAGCAAUAUUACGACCA, for which the “self-splicing fitness (ln)” value is, setting by setting: (30 °C) -0.97 ± 0.086; (37 °C) -0.34 ± 0.1.
For GCCGAGCAAUAUUACGGUGC the same measures were -2.75 ± 0.24 and -2.48 ± 0.29.
For CUUCAGCAAUAUUACGAGAU the same measures were -3.35 ± 0.23 and -2.43 ± 0.26.
For UACAAGCAAUAUUACGGUAG the same measures were -2.15 ± 0.089 and -1.43 ± 0.086.
For CACCAGCAAUAUUACGCUAC, the “self-splicing fitness (ln)” value by setting is: (30 °C) -5.01 ± 0.45; (37 °C) -2.1 ± 0.16.
For GCACAGCAAUAUUACGGGUA the same measures were -1.36 ± 0.055 and -0.723 ± 0.061.
Take UGUAAGCAAUAUUACGGUAC: under “30 °C”, the “self-splicing fitness (ln)” value is -1.81 ± 0.45.
CUUUAGCAAUAUUACGAGAG: the “self-splicing fitness (ln)” value reads like this: (30 °C) -4.26 ± 0.34; (37 °C) -2.03 ± 0.28.
As to UCCAAGCAAUAUUACGUAUG, the “self-splicing fitness (ln)” value by setting is: (30 °C) -4.08 ± 0.19; (37 °C) -2.36 ± 0.2.
For AAGGAGCAAUAUUACGCAGG, in that order: -3.65 ± 0.32 and -2.22 ± 0.39.
For AGGGAGCAAUAUUACGCUAU, in that order: -3.63 ± 0.43 and -1.85 ± 0.49.
For ACGCAGCAAUAUUACGAUUG, in that order: -2.96 ± 0.18 and -1.82 ± 0.17.
On to AGAAAGCAAUAUUACGAGUC, for which the “self-splicing fitness (ln)” value is, setting by setting: (30 °C) -3.82 ± 0.33; (37 °C) -1.57 ± 0.18.
For GUCGAGCAAUAUUACGUUGG the same measures were -1.9 ± 0.16 and -2.95 ± 0.47.
Turning to UGUCAGCAAUAUUACGCAUU, the “self-splicing fitness (ln)” value is, setting by setting: (30 °C) -1.74 ± 0.09; (37 °C) -0.133 ± 0.092.
For AAGUAGCAAUAUUACGGGGU the same measures were -3.03 ± 0.15 and -2.53 ± 0.15.
Take ACCCAGCAAUAUUACGCUUG: the “self-splicing fitness (ln)” value reads like this: (30 °C) -3.38 ± 0.11; (37 °C) -2.43 ± 0.12.
For GUGAAGCAAUAUUACGAUUG the same measures were -1.38 ± 0.11 and -1.78 ± 0.14.
For UCCUAGCAAUAUUACGGGGC, in that order: -3.1 ± 0.23 and -2.77 ± 0.32.
For ACGCAGCAAUAUUACGCCUC, in that order: -2.83 ± 0.17 and -1.22 ± 0.19.
For the sequence ACAUAGCAAUAUUACGGCUC, the “self-splicing fitness (ln)” value (30 °C) is -0.967 ± 0.092 and the “self-splicing fitness (ln)” value (37 °C) is -0.28 ± 0.12.
Regarding GAUAAGCAAUAUUACGAAUU, the “self-splicing fitness (ln)” value by setting is: (30 °C) -3.63 ± 0.26; (37 °C) -2.76 ± 0.25.
For AAUUAGCAAUAUUACGUCAG the same measures were -1.16 ± 0.14 and -1.47 ± 0.24.
Regarding AAGCAGCAAUAUUACGGCUC, the “self-splicing fitness (ln)” value by setting is: (30 °C) -1.67 ± 0.093; (37 °C) -0.463 ± 0.14.
As for UCCGAGCAAUAUUACGCUCC, the “self-splicing fitness (ln)” value (30 °C) is -1.58 ± 0.41.
With UUGGAGCAAUAUUACGGAUG, the “self-splicing fitness (ln)” value reads like this: (30 °C) -3.54 ± 0.34; (37 °C) -2.12 ± 0.4.
With CGUCAGCAAUAUUACGCGCG, the “self-splicing fitness (ln)” value was -4.06 ± 0.39 (30 °C) and -2.19 ± 0.36 (37 °C).
For AGUCAGCAAUAUUACGCAGG the same measures were -2.85 ± 0.26 and -2.92 ± 0.43.
For GUUGAGCAAUAUUACGGACA, in that order: -0.932 ± 0.47 and -1.32 ± 0.43.
For CCUAAGCAAUAUUACGCGUU, in that order: -3.27 ± 0.15 and -2.69 ± 0.16.
Take UUCGAGCAAUAUUACGUAGU: the “self-splicing fitness (ln)” value runs as follows: (30 °C) -2.91 ± 0.29; (37 °C) -0.98 ± 0.25.
For GUGGAGCAAUAUUACGUCGU, in that order: -1.65 ± 0.21 and -1.48 ± 0.26.
For CAUUAGCAAUAUUACGGACU, in that order: -2.75 ± 0.28 and -1.89 ± 0.23.
For AACGAGCAAUAUUACGAACA, in that order: -3.15 ± 0.28 and -1.9 ± 0.16.
For AUCAAGCAAUAUUACGCAGC, the “self-splicing fitness (ln)” value is -2.12 ± 0.2 (30 °C) and -1.8 ± 0.25 (37 °C).
For UUGAAGCAAUAUUACGAUAG, in that order: 0.155 ± 0.071 and 0.398 ± 0.095.
For UCUAAGCAAUAUUACGAGGU, in that order: -2.8 ± 0.27 and -0.819 ± 0.17.
For UCGAAGCAAUAUUACGUUGA, in that order: -2.05 ± 0.099 and -2.63 ± 0.13.
As to ACCAAGCAAUAUUACGAAAG, the “self-splicing fitness (ln)” value is -3.27 ± 0.18 (30 °C) and -1.78 ± 0.14 (37 °C).
For GCUAAGCAAUAUUACGUAAG, in that order: -0.616 ± 0.11 and 0.0143 ± 0.15.
For GGAAAGCAAUAUUACGGUGC the same measures were -3.36 ± 0.27 and -1.62 ± 0.23.
For CACUAGCAAUAUUACGCAAA, the “self-splicing fitness (ln)” value is, setting by setting: (30 °C) -2.95 ± 0.21; (37 °C) -2.46 ± 0.27.
For CUCGAGCAAUAUUACGUUUG the same measures were -3.74 ± 0.24 and -2.11 ± 0.16.
AACAAGCAAUAUUACGCACG: the “self-splicing fitness (ln)” value reads like this: (30 °C) -1.31 ± 0.18; (37 °C) -0.33 ± 0.18.
For GGGUAGCAAUAUUACGGGGG, in that order: -2.97 ± 0.24 and -2.09 ± 0.25.
With CCAAAGCAAUAUUACGAUAC, under “30 °C”, the “self-splicing fitness (ln)” value is -2.15 ± 0.27.
Consider CUAUAGCAAUAUUACGUCUG, for which the “self-splicing fitness (ln)” value runs as follows: (30 °C) 0.043 ± 0.088; (37 °C) -0.099 ± 0.1.
For AAAUAGCAAUAUUACGUUGA the same measures were -3.3 ± 0.41 and -0.771 ± 0.16.
For ACGCAGCAAUAUUACGCUAC the same measures were -1.93 ± 0.25 and -2.59 ± 0.45.
Take ACCCAGCAAUAUUACGGCAU: the “self-splicing fitness (ln)” value (30 °C) is -0.483 ± 0.042 and the “self-splicing fitness (ln)” value (37 °C) is 0.0474 ± 0.058.
As for AAGGAGCAAUAUUACGCCCA, the “self-splicing fitness (ln)” value is, setting by setting: (30 °C) -1.88 ± 0.27; (37 °C) -1.46 ± 0.24.
For AUUGAGCAAUAUUACGGGUU, in that order: -3.92 ± 0.25 and -3.31 ± 0.21.
For CGCGAGCAAUAUUACGUAUG the same measures were -1.62 ± 0.13 and -1.2 ± 0.19.
For UUCGAGCAAUAUUACGGACA, in that order: -2.7 ± 0.22 and -1.79 ± 0.17.
In the case of CUAGAGCAAUAUUACGAAUU, the “self-splicing fitness (ln)” value (30 °C) was -3.78 ± 0.28 and the “self-splicing fitness (ln)” value (37 °C) was -1.95 ± 0.29.
For CUGAAGCAAUAUUACGGACG the same measures were 0.0263 ± 0.084 and 0.166 ± 0.1.
For AGGAAGCAAUAUUACGGGUG the same measures were -2.14 ± 0.091 and -1.98 ± 0.11.
For GACAAGCAAUAUUACGAUGG, the “self-splicing fitness (ln)” value was -2.52 ± 0.1 (30 °C) and -2.14 ± 0.16 (37 °C).
For GCCAAGCAAUAUUACGGUGG, in that order: -3.54 ± 0.15 and -1.26 ± 0.14.
With AGACAGCAAUAUUACGCAGU, the “self-splicing fitness (ln)” value by setting is: (30 °C) -3.96 ± 0.2; (37 °C) -3.04 ± 0.27.
For GGACAGCAAUAUUACGGGAG the same measures were -2.73 ± 0.13 and -1.28 ± 0.15.
For GUAGAGCAAUAUUACGAGAU, the “self-splicing fitness (ln)” value is -4.13 ± 0.23 (30 °C) and -0.661 ± 0.16 (37 °C).
